{"source": "paper PMC2783296", "origin": "cited, not measured here", "molecular_target": "Glu134 (UniProt position 134, VVLAIERYVVV)", "test": "IR", "conditions": "Photoactivated metarhodopsin II (all-trans retinal, unprotonated Schiff base)", "data": [{"substance": "Rhodopsin (metarhodopsin II photointermediate) (Bos taurus (inferred; species not stated in the article))", "values": [{"measurement": "pKa", "value": 6.3}]}]}
